US20260015406A1 (University of Pennsylvania, published 2026)

Experiments:
[1] = target: switchable CAR (sCAR) with anti-PNE single chain variable fragment; experiment: flow cytometry, PNE-FITC titrated on sCAR T cells
[2] = target: T1, human full length CDH17, also called cadherin 17 or liver-intestine cadherin (human, UniProt Q12864 23-832); experiment: cell-based or functional assay
T1 sequence (looked up): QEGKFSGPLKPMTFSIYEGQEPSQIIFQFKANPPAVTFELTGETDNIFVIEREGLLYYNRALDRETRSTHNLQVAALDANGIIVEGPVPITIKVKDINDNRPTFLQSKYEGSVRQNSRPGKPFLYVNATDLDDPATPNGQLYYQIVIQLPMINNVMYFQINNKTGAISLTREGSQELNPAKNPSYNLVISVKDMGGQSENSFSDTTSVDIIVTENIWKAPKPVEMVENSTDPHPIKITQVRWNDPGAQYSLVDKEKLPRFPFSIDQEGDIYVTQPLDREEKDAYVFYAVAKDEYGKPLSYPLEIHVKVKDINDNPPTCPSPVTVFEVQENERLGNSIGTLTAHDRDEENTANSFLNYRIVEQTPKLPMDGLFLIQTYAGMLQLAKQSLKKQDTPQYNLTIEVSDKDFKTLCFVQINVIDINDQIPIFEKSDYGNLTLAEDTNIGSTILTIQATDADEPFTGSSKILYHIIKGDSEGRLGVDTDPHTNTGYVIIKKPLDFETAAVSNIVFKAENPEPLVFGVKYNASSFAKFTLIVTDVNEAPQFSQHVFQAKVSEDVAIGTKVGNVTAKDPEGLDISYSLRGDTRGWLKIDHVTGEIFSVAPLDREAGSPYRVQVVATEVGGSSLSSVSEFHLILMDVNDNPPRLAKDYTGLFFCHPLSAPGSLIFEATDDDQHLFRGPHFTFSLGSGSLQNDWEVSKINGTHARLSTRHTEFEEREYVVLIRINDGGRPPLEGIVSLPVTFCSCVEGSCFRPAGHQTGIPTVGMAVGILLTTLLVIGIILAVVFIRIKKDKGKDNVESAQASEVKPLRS

[3] = target: T2, mouse CDH17 (mouse, UniProt Q9R100 26-827); experiment: flow cytometry, VHH1-expressing phage on HEK293T cells transiently transfected with CDH17 cDNA
T2 construct: whole, on cells
T2 sequence (looked up): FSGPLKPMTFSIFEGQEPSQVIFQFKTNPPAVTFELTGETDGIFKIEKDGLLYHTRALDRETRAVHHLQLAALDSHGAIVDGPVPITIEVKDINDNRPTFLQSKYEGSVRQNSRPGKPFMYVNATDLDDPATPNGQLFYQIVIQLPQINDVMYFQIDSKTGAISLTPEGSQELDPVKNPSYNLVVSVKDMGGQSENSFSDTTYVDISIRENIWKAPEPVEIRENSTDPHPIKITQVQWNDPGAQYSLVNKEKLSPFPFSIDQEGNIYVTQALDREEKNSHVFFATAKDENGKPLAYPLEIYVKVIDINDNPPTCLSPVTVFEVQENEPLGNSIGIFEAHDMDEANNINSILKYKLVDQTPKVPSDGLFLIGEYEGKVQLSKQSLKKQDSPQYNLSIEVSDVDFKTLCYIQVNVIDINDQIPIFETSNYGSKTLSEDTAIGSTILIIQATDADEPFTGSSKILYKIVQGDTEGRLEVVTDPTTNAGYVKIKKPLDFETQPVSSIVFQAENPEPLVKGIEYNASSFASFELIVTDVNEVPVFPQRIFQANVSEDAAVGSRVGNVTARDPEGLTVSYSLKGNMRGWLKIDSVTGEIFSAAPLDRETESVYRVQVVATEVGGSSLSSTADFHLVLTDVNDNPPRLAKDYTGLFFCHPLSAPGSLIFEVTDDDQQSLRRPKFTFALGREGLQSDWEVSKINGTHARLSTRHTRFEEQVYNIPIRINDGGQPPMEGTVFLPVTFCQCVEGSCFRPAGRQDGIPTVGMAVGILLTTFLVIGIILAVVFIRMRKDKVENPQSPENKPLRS
Procedure: (§1) Next, to identify the protein antigen of the isolated VHH1 nanobody, ˜3000 human cell membrane protein cDNAs were prepared and transfected into HEK293T cells individually, followed by flow cytometry analysis with the VHH1-expressing phage and FITC-labeled secondary antibody against phage M13 protein (FIG. 12A). […] Human or mouse CDH17 cDNA was transiently transfected into HEK293T cells, followed by flow cytometry analysis with the VHH1-expressing phage and FITC-labeled secondary antibody against phage M13 protein.

[4] = target: T1, human full length CDH17, also called …; experiment: flow cytometry, VHH1-expressing phage on HEK293T cells transfected with membrane protein cDNAs
Procedure: as §1

[5] = target: T3, human full length aminopeptidase N (APN, aka CD13) (human, UniProt P15144 2-967); experiment: flow cytometry on patient-derived AML cells (AML2844)
T3 construct: whole, on cells

[6] = target: T3, human full length aminopeptidase N …; experiment: flow cytometry on THP-1 cells (endogenous CD13)

T3 sequence (P15144 2-967): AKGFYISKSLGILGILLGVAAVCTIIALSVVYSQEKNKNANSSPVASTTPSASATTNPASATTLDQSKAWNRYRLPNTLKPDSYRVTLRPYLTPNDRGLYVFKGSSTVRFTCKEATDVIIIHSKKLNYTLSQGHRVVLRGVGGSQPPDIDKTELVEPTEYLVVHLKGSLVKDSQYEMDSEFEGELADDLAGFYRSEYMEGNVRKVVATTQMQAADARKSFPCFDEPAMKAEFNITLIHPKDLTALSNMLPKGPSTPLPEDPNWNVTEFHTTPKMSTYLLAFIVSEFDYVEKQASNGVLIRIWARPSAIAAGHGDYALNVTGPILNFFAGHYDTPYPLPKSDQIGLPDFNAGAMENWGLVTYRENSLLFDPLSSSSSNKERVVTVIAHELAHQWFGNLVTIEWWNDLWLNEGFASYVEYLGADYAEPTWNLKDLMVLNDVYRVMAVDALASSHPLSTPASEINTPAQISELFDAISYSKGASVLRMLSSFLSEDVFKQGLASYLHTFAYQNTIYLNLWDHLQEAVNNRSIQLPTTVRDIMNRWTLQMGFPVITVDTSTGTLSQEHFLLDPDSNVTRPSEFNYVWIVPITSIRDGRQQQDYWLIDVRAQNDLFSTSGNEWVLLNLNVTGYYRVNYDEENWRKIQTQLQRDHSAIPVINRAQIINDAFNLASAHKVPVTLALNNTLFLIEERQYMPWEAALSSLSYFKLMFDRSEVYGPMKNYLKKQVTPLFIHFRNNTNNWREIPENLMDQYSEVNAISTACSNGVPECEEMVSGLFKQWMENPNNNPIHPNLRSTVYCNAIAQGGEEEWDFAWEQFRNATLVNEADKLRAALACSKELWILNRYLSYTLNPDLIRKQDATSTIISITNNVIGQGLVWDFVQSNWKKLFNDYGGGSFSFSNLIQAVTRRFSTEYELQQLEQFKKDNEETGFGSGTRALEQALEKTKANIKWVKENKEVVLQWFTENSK

Molecule: FITC-labeled PNE-peptide
- EC50 [1]: 1 nM

B1: VLV-DM1 (VHH, not shown: small tags and cut ends)
VHH 1: QVQLQESGGGLVQPGGSTRLSCVSSRTFSYYDMGWFRQAPGKEREFVALLSWNGENAEYSDSVMGRFTVSRGNTQNSVNLQMNNLKPEDTGIYYCAVTHGGARSVRSWGQGTQVTVSS
VHH 2: QVQLQESGGGLVQPGGSTRLSCVSSRTFSYYDMGWFRQAPGKEREFVALLSWNGENAEYSDSVMGRFTVSRGNTQNSVNLQMNNLKPEDTGIYYCAVTHGGARSVRSWGQGTQVTVSS
modifications: Mertansine (DM1) is conjugated to the VLV protein; the residues, number of drugs and chemical linker are not stated. In reality one polypeptide: the two VHH1 units are joined by a peptide linker whose letters are not given.
- IC50, in vitro killing of BON cells (MTT assay) [2]: 1.2 nM

B2: VHH1 nanobody (VHH)
VHH: QVQLQESGGGLVQPGGSTRLSCVSSRTFSYYDMGWFRQAPGKEREFVALLSWNGENAEYSDSVMGRFTVSRGNTQNSVNLQMNNLKPEDTGIYYCAVTHGGARSVRSWGQGTQVTVSS
notes: From a naive llama phage library panned on BON cells
- binding result [3]: binds
- binding result [4]: binds

B3: Nb163 (VHH)
VHH: QVQLQESGGGLVQPGGSLRLSCVPSGFTFDGYLIGWFRQAPGSERKAVSCISVNGDRTNYADSVKGRFTISRDNAKNTVYLQMNSLRPNDTAIYYCATRRGNRLYNNNCPYFEYGTWGQGTQVTVSS
notes: also called VHH163; VH163
- binding result [5]: binds

B4: Nb157-C-PNE (VHH)
VHH: QVQLQESGGGLVQPGGSLSLSCTASGFTFSSYSMAWVRQAPGKGPEWVSGIYPSDGKTRYADFVKGRFSISRDNAKNMLYLQMNNLEPEDTALYYCARGITGLGPRGQGTQVTVSS
notes: also called VHH157-C-PNE; Nb157 with C-terminal PNE; not shown: PNE, a fourteen amino acid peptide
- Kd [6]: ~35 nM

B5: Nb157 (VHH)
VHH: QVQLQESGGGLVQPGGSLSLSCTASGFTFSSYSMAWVRQAPGKGPEWVSGIYPSDGKTRYADFVKGRFSISRDNAKNMLYLQMNNLEPEDTALYYCARGITGLGPRGQGTQVTVSS
notes: Llama nanobody from the THP-1-immunised library; also called VHH157; VH157
- Kd [6]: ~35 nM

B6: Nb157-N-PNE (VHH)
VHH: QVQLQESGGGLVQPGGSLSLSCTASGFTFSSYSMAWVRQAPGKGPEWVSGIYPSDGKTRYADFVKGRFSISRDNAKNMLYLQMNNLEPEDTALYYCARGITGLGPRGQGTQVTVSS
notes: also called VHH157-N-PNE; Nb157 with N-terminal PNE; not shown: PNE, a fourteen amino acid peptide
- Kd [6]: ~90 nM
